# Laboratory results reported in patent US20120264616A1.
# Target: receptor for IFN λ expressed by reporter HL116 cells (UniProt Q8IU57)
# Assay: cell-based or functional assay
# Sequence of UniProt Q8IU57 (Q8IU57 21-520 limits assumed): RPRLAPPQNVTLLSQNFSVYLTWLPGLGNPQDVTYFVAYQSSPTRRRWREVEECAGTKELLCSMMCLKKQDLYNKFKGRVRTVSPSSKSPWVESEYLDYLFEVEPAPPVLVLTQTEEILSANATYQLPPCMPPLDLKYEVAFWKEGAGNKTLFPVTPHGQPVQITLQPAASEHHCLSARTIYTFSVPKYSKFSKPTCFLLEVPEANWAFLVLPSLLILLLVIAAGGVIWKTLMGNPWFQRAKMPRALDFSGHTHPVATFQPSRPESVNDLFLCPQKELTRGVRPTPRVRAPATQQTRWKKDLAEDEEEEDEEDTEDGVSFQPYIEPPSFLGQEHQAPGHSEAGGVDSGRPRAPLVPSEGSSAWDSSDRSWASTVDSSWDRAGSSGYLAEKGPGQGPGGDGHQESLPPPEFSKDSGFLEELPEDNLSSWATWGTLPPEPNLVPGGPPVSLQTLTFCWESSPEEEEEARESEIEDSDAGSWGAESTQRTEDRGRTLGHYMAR
substance,measurement,value
interferon lambda (IFN λ) secreted into the culture supernatant by 293T cell clones transduced with parental lentiviral particles (ligand),"Luc exp 1, clone 1",68.2
same,"Luc exp 1, clone 2",73.2
same,"Luc exp 1, clone 3",80.8
same,"Luc exp 1, clone 4",84.3
same,"Luc exp 1, clone 5",100
same,"Luc exp 1, clone 6",77.7
same,"Luc exp 1, clone 7",90.9
same,"Luc exp 1, clone 8",88.9
same,"Luc exp 1, clone 9",78.7
same,"Luc exp 1, clone 10",89.8
same,"Luc exp 1, clone 11",95.4
same,"Luc exp 1, clone 12",77.2
same,"Luc exp 1, clone 13",94.4
same,"Luc exp 1, clone 14",89.2
same,"Luc exp 1, clone 15",87.6
same,"Luc exp 1, clone 16",81.4
same,"Luc exp 1, clone 17",79.9
same,"Luc exp 2, clone 1",68.8
same,"Luc exp 2, clone 2",66.3
same,"Luc exp 2, clone 3",87.3
same,"Luc exp 2, clone 4",88.1
same,"Luc exp 2, clone 5",97.8
same,"Luc exp 2, clone 6",88.3
same,"Luc exp 2, clone 7",95.1
same,"Luc exp 2, clone 8",107
same,"Luc exp 2, clone 9",99.2
same,"Luc exp 2, clone 10",86.9
same,"Luc exp 2, clone 11",75.8
same,"Luc exp 2, clone 12",91.6
same,"Luc exp 2, clone 13",94.8
same,"Luc exp 2, clone 14",72.9
same,"Luc exp 2, clone 15",87.8
same,"Luc exp 2, clone 16",77.2
same,"Luc exp 2, clone 17",71.7
same,"Luciferase average, clone 1",68.2
same,"Luciferase average, clone 2",69.7
same,"Luciferase average, clone 3",84
same,"Luciferase average, clone 4",86.3
same,"Luciferase average, clone 5",99
same,"Luciferase average, clone 6",83
same,"Luciferase average, clone 7",93
same,"Luciferase average, clone 8",97.9
same,"Luciferase average, clone 9",89
same,"Luciferase average, clone 10",88.3
same,"Luciferase average, clone 11",85.6
same,"Luciferase average, clone 12",84.4
same,"Luciferase average, clone 13",94.6
same,"Luciferase average, clone 14",81.1
same,"Luciferase average, clone 15",87.7
same,"Luciferase average, clone 16",79.3
same,"Luciferase average, clone 17",75.8
